The record followed here is patent US20240325557A1 (INNATE PHARMA, published 2024).

The Kd is a measure of binding affinity in units of concentration. The term koff denotes the rate constant with which the complex falls apart. A word on the kon: it is the second-order rate constant of association. Lower therefore signals slow association.

For one assay, the target named is T1, human Nectin-4 Mutant 1 (human, UniProt Q96NY8 32-510).
T1 construct: Expressed on transfected HEK-293T cells; also called S58P/G59D/Q61A/N106D/P107A
T1 chain: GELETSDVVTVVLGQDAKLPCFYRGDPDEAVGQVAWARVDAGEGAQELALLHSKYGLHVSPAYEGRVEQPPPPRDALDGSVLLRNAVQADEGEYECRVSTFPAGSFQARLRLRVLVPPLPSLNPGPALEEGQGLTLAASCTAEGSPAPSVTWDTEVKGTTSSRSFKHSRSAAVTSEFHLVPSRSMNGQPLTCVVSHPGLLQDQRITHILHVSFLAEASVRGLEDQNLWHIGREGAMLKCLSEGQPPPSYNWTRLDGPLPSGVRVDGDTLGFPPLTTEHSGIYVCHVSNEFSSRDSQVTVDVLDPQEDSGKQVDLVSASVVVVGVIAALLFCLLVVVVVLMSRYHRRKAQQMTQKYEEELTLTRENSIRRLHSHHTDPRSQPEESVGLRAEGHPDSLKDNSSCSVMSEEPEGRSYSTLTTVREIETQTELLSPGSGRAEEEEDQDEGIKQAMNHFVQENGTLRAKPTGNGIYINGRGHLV
Briefly: binding to HEK-293T cells transfected with the Nectin-4 mutant.

In assay [1] the target is T2, monomeric huNectin4-his-BirA protein (human, UniProt Q96NY8 32-349).
T2 construct: also called Human Nectin4-His-BirA; huNectin4-BirA
T2 sequence: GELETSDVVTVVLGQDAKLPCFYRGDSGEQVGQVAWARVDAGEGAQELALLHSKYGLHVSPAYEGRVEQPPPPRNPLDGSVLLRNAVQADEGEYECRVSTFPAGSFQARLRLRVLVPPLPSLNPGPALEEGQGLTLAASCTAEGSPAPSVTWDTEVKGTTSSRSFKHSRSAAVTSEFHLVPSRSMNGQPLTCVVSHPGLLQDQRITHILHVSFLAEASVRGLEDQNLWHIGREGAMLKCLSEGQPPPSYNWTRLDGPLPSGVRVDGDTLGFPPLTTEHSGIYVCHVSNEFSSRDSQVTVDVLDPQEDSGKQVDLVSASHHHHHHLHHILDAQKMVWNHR
Briefly: SPR (Biacore T200), antibody captured on Protein A, monomeric huNectin4-his-BirA injected. As for the experimental part: Antibodies were tested for binding affinity to the wild-type human Nectin-4 protein by SPR (Surface Plasmon Resonance) methods. Measurements were performed on a Biacore T200 apparatus (Biacore GE Healthcare) at 25° C. Sensorgrams were analyzed with Biacore T100 Evaluation software. A CMR Sensor Chip with immobilized Protein A at about 600 RU was used. Anti-Nectin-4 antibodies were captured onto the Protein-A chip (antibodies diluted to 1 μg/ml in HBS-EP+1× buffer and injected over 120s at 40 μL/min). […] The chip was regenerated with NaOh 10 mM 2× for 30s at 40 μl/min. The sensorgram sets were fitted using the 1:1 kinetic binding model or two state reaction model, as a function of the profile of the curves.
(In general: SPR reads the build-up and loss of mass on a sensor chip optically.)

The target of assay [2] is T3, huNectin4-C1C2-V5 (C1C2 construct, lacking the Ig-like V domain) (human, UniProt Q96NY8 148-510).
T3 construct: Expressed on CHO cells; also called Hu-Nectin4 IgC1C2-V5; Nectin4-C1C2-V5 sorted cells
T3 sequence: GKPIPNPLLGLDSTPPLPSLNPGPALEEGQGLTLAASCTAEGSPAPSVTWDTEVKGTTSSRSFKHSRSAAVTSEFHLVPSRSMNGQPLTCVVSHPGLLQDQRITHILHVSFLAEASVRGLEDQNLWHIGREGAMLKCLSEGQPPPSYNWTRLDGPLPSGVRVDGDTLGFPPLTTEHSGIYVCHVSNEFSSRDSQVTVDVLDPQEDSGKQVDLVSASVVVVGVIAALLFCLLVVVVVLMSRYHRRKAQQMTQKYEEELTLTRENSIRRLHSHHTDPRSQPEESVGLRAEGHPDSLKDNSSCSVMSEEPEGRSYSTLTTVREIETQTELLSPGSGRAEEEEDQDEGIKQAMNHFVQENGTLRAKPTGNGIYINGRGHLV
Briefly: flow cytometry on huNectin4-C1C2-V5 CHO cells. As for the experimental part: The characterization of the binding of the antibodies on Nectin-4 domains was performed by flow cytometry using cells made to express the wild-type human Nectin-4 protein and cells made to express a modified Nectin-4 having the Ig-like C₂ type 1 and the Ig-like C₂ type 2 domains and lacking the Ig-like V domain (the C1C2 construct). The latter protein additionally bears a V5 tag for flow cytometry cell sorting, and cells were used as Nectin4-C1C2-V5 sorted cells.
(In flow cytometry, cells or beads pass a laser one at a time.)

The target of assay [3] is T4, wild-type human Nectin-4 on the CHO huNectin4 Cl.3C8 cell line (human, UniProt Q96NY8 32-510).
T4 construct: also called whole Nectin-4 protein; huNectin4 CI.3C8
T4 sequence: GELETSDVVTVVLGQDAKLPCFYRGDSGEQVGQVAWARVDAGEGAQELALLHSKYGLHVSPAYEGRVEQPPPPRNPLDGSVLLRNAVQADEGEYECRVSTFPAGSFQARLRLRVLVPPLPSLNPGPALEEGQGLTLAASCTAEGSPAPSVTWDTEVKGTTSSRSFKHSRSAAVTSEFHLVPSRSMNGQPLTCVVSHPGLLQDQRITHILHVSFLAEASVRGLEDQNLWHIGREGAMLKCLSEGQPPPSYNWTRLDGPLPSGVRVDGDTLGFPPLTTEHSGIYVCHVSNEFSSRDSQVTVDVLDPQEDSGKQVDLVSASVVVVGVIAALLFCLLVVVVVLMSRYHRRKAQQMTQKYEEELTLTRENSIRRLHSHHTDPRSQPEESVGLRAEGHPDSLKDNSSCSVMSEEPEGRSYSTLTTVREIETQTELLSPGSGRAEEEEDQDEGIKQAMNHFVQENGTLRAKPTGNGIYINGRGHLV
The assay is described as follows: flow cytometry on wild-type human Nectin-4 cell line.

The next assay deals with T5, human Nectin-4 Mutant 3 (human, UniProt Q96NY8 32-510).
T5 construct: Expressed on transfected HEK-293T cells; also called A76S/Q77R/E78A/S91N
T5 chain: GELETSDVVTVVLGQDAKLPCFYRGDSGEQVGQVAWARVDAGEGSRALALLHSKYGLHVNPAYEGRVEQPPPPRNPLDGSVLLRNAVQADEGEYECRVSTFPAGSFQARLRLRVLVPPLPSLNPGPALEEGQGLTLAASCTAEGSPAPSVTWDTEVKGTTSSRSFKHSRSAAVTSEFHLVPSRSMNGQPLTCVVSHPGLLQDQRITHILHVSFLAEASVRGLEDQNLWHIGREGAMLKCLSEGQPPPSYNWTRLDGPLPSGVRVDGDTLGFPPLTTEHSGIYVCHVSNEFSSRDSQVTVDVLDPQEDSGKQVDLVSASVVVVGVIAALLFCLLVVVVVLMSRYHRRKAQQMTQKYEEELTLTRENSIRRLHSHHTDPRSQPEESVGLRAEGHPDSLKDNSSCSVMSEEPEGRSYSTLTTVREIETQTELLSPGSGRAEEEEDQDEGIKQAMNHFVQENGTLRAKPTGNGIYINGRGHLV
The assay is described as follows: binding to HEK-293T cells transfected with the Nectin-4 mutant.

For assay [4], the target named is T3, huNectin4-C1C2-V5 (C1C2 construct, …). The assay is described as follows: flow cytometry on Nectin4-C1C2-V5 sorted cells.
The target in assay [5] is T6, human Nectin 1 on CHO cells (human, UniProt Q15223 31-517).
T6 sequence: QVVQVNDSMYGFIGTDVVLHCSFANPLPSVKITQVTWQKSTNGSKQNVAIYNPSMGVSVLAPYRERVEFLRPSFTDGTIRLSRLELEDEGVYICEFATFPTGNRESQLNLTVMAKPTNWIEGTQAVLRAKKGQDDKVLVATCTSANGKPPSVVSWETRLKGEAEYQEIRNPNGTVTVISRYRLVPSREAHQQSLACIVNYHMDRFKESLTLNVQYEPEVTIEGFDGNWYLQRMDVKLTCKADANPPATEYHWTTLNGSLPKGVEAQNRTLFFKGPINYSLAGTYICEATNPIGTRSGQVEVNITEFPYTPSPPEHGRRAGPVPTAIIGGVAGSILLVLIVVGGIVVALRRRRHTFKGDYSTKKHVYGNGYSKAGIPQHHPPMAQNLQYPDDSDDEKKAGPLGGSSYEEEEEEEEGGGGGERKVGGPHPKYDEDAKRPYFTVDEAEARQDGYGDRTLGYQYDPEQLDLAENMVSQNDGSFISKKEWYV
Briefly: flow cytometry on CHO cells expressing human Nectin 1. As for the experimental part: (§1) Anti-Nectin-4 antibodies were tested by flow cytometry for binding to different CHO cell lines made to express respectively the human Nectin 1, Nectin 2, Nectin 3 and PVR proteins. The expression of each cell lines was controlled and validated with known respectively the anti-human Nectin1, anti-human Nectin2, anti-human Nectin3 and anti-human PVR antibodies. The mature amino acid sequence of the proteins expressed by the cells were as follows:
(§2) Nectin 1, Nectin 2, Nectin 3 and PVR proteins as in Example 12. […] Epitope mapping was carried out by assessing competition for binding to Nectin-4 by SPR as in Example 14.

A further assay deals with T7, human PVR on CHO cells (human, UniProt P15151 28-417).
T7 construct: also called PVR (Nectin-5)
T7 sequence: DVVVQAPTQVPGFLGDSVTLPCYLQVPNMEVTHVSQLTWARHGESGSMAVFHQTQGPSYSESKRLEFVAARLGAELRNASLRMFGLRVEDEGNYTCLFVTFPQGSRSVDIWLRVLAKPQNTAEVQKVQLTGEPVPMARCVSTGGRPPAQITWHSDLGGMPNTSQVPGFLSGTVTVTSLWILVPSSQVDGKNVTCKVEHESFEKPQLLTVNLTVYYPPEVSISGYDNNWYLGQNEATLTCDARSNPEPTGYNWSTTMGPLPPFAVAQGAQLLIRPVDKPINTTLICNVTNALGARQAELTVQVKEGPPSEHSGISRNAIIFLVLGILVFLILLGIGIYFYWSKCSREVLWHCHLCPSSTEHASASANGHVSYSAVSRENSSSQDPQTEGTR
Briefly: flow cytometry on CHO cells expressing human PVR. As for the experimental part:
as §1, §2

Assay [6] concerns the target T8, human Nectin 2 on CHO cells (human, UniProt Q92692 32-538).
T8 sequence: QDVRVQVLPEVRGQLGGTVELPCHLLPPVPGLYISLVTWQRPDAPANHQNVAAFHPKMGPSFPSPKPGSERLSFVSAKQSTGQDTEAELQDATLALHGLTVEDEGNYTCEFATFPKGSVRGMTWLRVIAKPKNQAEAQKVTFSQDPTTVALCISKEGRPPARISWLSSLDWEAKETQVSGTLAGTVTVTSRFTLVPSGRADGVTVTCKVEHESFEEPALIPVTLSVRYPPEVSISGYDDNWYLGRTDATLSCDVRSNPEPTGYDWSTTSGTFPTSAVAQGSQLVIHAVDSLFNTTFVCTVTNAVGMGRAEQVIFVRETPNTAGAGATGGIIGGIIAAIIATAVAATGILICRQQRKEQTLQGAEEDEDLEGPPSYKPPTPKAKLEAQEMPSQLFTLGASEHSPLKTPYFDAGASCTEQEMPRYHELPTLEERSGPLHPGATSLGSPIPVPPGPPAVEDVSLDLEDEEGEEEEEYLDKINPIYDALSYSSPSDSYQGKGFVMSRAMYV
The assay is described as follows: flow cytometry on CHO cells expressing human Nectin 2. As for the experimental part:
as §1, §2

B1: antibody N41 (antibody, V domains shown)
VH: QVQLKQSGPGLVQPSQSLSITCTVSGFSLTNYGVHWVRQSPGKGLEWLGVIWSGGSTDYNAAFISRLSISKDTSKSQVFFKMNSLQADDTAIYYCARELIHAMDNWGQGTSVTVSS
VL: DIQMTQSPASLSVSVGETVTITCRASENIYSNLAWYQQKQGNSPQLLVFAATNLADGVPSRFSGSGSGTQYSLKINSLQSEDFGTYYCQHFWGTPTFGGGTKLEIK
notes: Comparator anti-Nectin-4 antibody
For the molecule B1, the binding result in the assay with human Nectin-4 Mutant 1 is given as “no binding”. For the same molecule, in assay [1], binding was characterised by a dissociation constant (Kd) of 1.5 nM, the koff is 0.00087 s⁻¹ and the kon was 580000 M⁻¹ s⁻¹. Moreover, in [2], the binding result was “no binding”.

B2: antibody 6C11B (antibody, human IgG1, V domains shown)
VH: EVQLQQSGPELVKPGASVKISCKTSGYTFTEYTIHWVKQNHGKSLEWIGRINPKNGDIIHNQNFMGKATLTVDKSSSTAYMELRSLTSEDSAVCYCARSGYGSSYGFAYWGQGTLVTVSA
VL: DIVMTQSPTSLVVSLGQRATISCRASQSVTTPRYSYMHWYQQKPGQPPKLLIKYASNLESGVPARFSGSGSGTDFTLNIHPVEEEDTATYYCQHSWEIPYTFGGGTKLEIK
notes: also called 6CB11; CHG1-M-4N4-6C11B
Regarding B2, the binding result was “binds” in [3]; “no binding” with human Nectin-4 Mutant 3; “binds” in [4]; “no binding” in [5]; “no binding” in the assay with human PVR on CHO cells; “no binding” in assay [6].
